Measured values: patent US20170106012A1

Molecular target: T1, Bone morphogenetic protein 2 (BMP-2), recombinant human (Homo sapiens) (UniProt P12643)
T1 sequence: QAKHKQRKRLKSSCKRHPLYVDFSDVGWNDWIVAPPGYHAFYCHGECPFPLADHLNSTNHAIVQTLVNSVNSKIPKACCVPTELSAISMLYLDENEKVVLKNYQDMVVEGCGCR
Assay: cell-based or functional assay

inhibition of BMP-2-induced ALP activity in C2C12 cells; noggin at 30 ng/ml, BMP-2 at 100 ng/ml, no GAG: 14 percent
inhibition of BMP-2-induced ALP activity in C2C12 cells; noggin at 30 ng/ml, in the presence of HS+ve: 2 percent
inhibition of BMP-2-induced ALP activity in C2C12 cells; noggin at 30 ng/ml, in the presence of HSpm: 4 percent
inhibition of BMP-2-induced ALP activity in C2C12 cells; noggin at 100 ng/mL, in the presence of HS-ve: 75 percent
inhibition of BMP-2-induced ALP activity in C2C12 cells; noggin at 100 ng/ml, BMP-2 at 100 ng/ml, no GAG: 95 percent
inhibition of BMP-2-induced ALP activity in C2C12 cells; noggin at 100 ng/ml, in the presence of HS+ve: 43 percent
inhibition of BMP-2-induced ALP activity in C2C12 cells; noggin at 100 ng/ml, in the presence of HSpm: 62 percent
B1: noggin (protein, UniProt Q13253 28-232, looked up, species assumed)
Noggin: QHYLHIRPAPSDNLPLVDLIEHPDPIFDPKEKDLNETLLRSLLGGHYDPGFMATSPPEDRPGGGGGAAGGAEDLAELDQLLRQRPSGAMPSEIKGLEFSEGLAQGKKQRLSKKLRRKLQMWLWSQTFCPVLYAWNDLGSRFWPRYVKVGSCFSKRSCSVPEGMVCKPSKSVHLTVLRWRCQRRGGQRCGWIPIQYPIISECKCSC
